Data taken from patent US20130224798A1.

Target: Toll-like Receptor 5 (TLR5) constitutively expressed by HEK293 cells (UniProt O60602)
Assay: cell-based or functional assay

Row | Binder | TLR activity (EC50, ng/ml) | TLR5 activity (EC50, ng/ml) | also measured
1 | ngSTF2.HA1-1His(PR8), produced in Baculovirus (protein) AQVINTNSLSLLTQNNLQKSQSALGTAIERLSSGLRINSAKDDAAGQAIANRFTANIKGLTQASRNANDGISIAQTTEGALNEINNNLQRVRELAVQSAQSTNSQSDLDSIQAEITQRLNEIDRVSGQTQFNGVKVLAQDNTLTIQVGANDGETIDIDLKQINSQTLGLDSLNVQKAYDVKDTAVTTKAYANQGTTLDVSGLDDAAIKAATGGTQGTASVTGGAVKFDADNNKYFVTIGGFTGADAAKNGDYEVNVATDGTVTLAAGATKTTMPAGATTKTEVQELKDTPAVVSADAKNALIAGGVDATDANGAELVKMSYTDKNGKTIEGGYALKAGDKYYAADYDEATGAIKAKTTSYTAADGTTKTAANQLGGVDGKTEVVTIDGKTYQASKAAGHDFKAQPELAEAAAKTTENPLQKIDAALAQVDALRSDLGAVQNRFNSAITNLGNTVNQLSEARSRIEDSDYATEVSQMSRAQILQQAGTSVLAQANQVPQNVLSLLASGSGSGSSHNGKLCRLKGIAPLQLGKCNIAGWLLGNPECDPLLPVRSWSYIVETPNSENGICYPGDFIDYEELREQLSSVSSFERFEIFPKESSWPNHNTNGVTAACSHEGKSSFYRNLLWLTEKEGSYPKLKNSYVNKKGKEVLVLWGIHHPPNSKEQQNLYQNENAYVSVVTSNYNRRFTPEIAERPKVRDQAGRMNYYWTLLKPGDTIIFEANGNLIAPMYAFALSRGFGSGIITSQASMHECNTKCQTPLGAIQSSLPYQNIHPVTIGECPKYVRHHHHHH | 30 ng/mL | – | –
2 | STF2.HA1-2His(PR8), produced in Baculovirus (protein) AQVINTNSLSLLTQNNLNKSQSALGTAIERLSSGLRINSAKDDAAGQAIANRFTANIKGLTQASRNANDGISIAQTTEGALNEINNNLQRVRELAVQSANSTNSQSDLDSIQAEITQRLNEIDRVSGQTQFNGVKVLAQDNTLTIQVGANDGETIDIDLKQINSQTLGLDSLNVQKAYDVKDTAVTTKAYANNGTTLDVSGLDDAAIKAATGGTNGTASVTGGAVKFDADNNKYFVTIGGFTGADAAKNGDYEVNVATDGTVTLAAGATKTTMPAGATTKTEVQELKDTPAVVSADAKNALIAGGVDATDANGAELVKMSYTDKNGKTIEGGYALKAGDKYYAADYDEATGAIKAKTTSYTAADGTTKTAANQLGGVDGKTEVVTIDGKTYNASKAAGHDFKAQPELAEAAAKTTENPLQKIDAALAQVDALRSDLGAVQNRFNSAITNLGNTVNNLSEARSRIEDSDYATEVSNMSRAQILQQAGTSVLAQANQVPQNVLSLLASGSGSGSKGIAPQLGKCNIAGWLLGNPECDPLLPVRSWSYIVETPNSENGICYPGDFIDYEELREQLSSVSSFERFEIFPKESSWPNHNTNGVTAACSHEGKSSFYRNLLWLTEKEGSYPKLKNSYVNKKGKEVLVLWGIHHPPNSKEQQNLYQNENAYVSVVTSNYNRRFTPEIAERPKVRDQAGRMNYYWTLLKPGDTIIFEANGNLIAPMYAFALSRGFGSGIITSHHHHHH | 9 ng/mL | – | –
3 | ngSTF2.HA1-2mutHis(PR8), produced in Baculovirus (protein) AQVINTNSLSLLTQNNLQKSQSALGTAIERLSSGLRINSAKDDAAGQAIANRFTANIKGLTQASRNANDGISIAQTTEGALNEINNNLQRVRELAVQSAQSTNSQSDLDSIQAEITQRLNEIDRVSGQTQFNGVKVLAQDNTLTIQVGANDGETIDIDLKQINSQTLGLDSLNVQKAYDVKDTAVTTKAYANQGTTLDVSGLDDAAIKAATGGTQGTASVTGGAVKFDADNNKYFVTIGGFTGADAAKNGDYEVNVATDGTVTLAAGATKTTMPAGATTKTEVQELKDTPAVVSADAKNALIAGGVDATDANGAELVKMSYTDKNGKTIEGGYALKAGDKYYAADYDEATGAIKAKTTSYTAADGTTKTAANQLGGVDGKTEVVTIDGKTYQASKAAGHDFKAQPELAEAAAKTTENPLQKIDAALAQVDALRSDLGAVQNRFNSAITNLGNTVNQLSEARSRIEDSDYATEVSQMSRAQILQQAGTSVLAQANQVPQNVLSLLASGSGSGSKGAAPQLGKCNIAGWLLGNPECDPLLPVRSWSDIAETPNSENGICYPGDFIDYEELREQLSSVSSFERFEIFPKESSWPNHNTNGVTAACSHEGKSSFYRNLLWLTEKEGSYPKLKNSYVNKKGKEVLVLWGIHHPPNSKEQQNLYQNENAYVSVVTSNYNRRFTPEIAERPKVRDQAGRMNYYWTLLKPGDTIIFEANGNLIAPMYAFALSRGFGSGIITSHHHHHH | 9 ng/mL | – | –
4 | STF2.HA1-2mutHis(PR8), produced in Baculovirus (protein) AQVINTNSLSLLTQNNLNKSQSALGTAIERLSSGLRINSAKDDAAGQAIANRFTANIKGLTQASRNANDGISIAQTTEGALNEINNNLQRVRELAVQSANSTNSQSDLDSIQAEITQRLNEIDRVSGQTQFNGVKVLAQDNTLTIQVGANDGETIDIDLKQINSQTLGLDSLNVQKAYDVKDTAVTTKAYANNGTTLDVSGLDDAAIKAATGGTNGTASVTGGAVKFDADNNKYFVTIGGFTGADAAKNGDYEVNVATDGTVTLAAGATKTTMPAGATTKTEVQELKDTPAVVSADAKNALIAGGVDATDANGAELVKMSYTDKNGKTIEGGYALKAGDKYYAADYDEATGAIKAKTTSYTAADGTTKTAANQLGGVDGKTEVVTIDGKTYNASKAAGHDFKAQPELAEAAAKTTENPLQKIDAALAQVDALRSDLGAVQNRFNSAITNLGNTVNNLSEARSRIEDSDYATEVSNMSRAQILQQAGTSVLAQANQVPQNVLSLLASGSGSGSKGAAPLQLGKCNIAGWLLGNPECDPLLPVRSWSDIAETPNSENGICYPGDFIDYEELREQLSSVSSFERFEIFPKESSWPNHNTNGVTAACSHEGKSSFYRNLLWLTEKEGSYPKLKNSYVNKKGKEVLVLWGIHHPPNSKEQQNLYQNENAYVSVVTSNYNRRFTPEIAERPKVRDQAGRMNYYWTLLKPGDTIIFEANGNLIAPMYAFALSRGFGSGIITSHHHHHH | 900 ng/mL | – | –
5 | STF2.EIII+ (protein) MAQVINTNSLSLLTQNNLNKSQSALGTAIERLSSGLRINSAKDDAAGQAIANRFTANIKGLTQASRNANDGISIAQTTEGALNEINNNLQRVRELAVQSANSTNSQSDLDSIQAEITQRLNEIDRVSGQTQFNGVKVLAQDNTLTIQVGANDGETIDIDLKQINSQTLGLDSLNVQKAYDVKDTAVTTKAYANNGTTLDVSGLDDAAIKAATGGTNGTASVTGGAVKFDADNNKYFVTIGGFTGADAAKNGDYEVNVATDGTVTLAAGATKTTMPAGATTKTEVQELKDTPAVVSADAKNALIAGGVDATDANGAELVKMSYTDKNGKTIEGGYALKAGDKYYAADYDEATGAIKAKTTSYTAADGTTKTAANQLGGVDGKTEVVTIDGKTYNASKAAGHDFKAQPELAEAAAKTTENPLQKIDAALAQVDALRSDLGAVQNRFNSAITNLGNTVNNLSEARSRIEDSDYATEVSNMSRAQILQQAGTSVLAQANQVPQNVLSLLRKGNSKLEGQLEFPRTSMEKLQLKGTTYGVCSKAFKFLGTPADTGHGTVVLELQYTGTDGPCKVPISSVASLNDLTPVGRLVTVNPFVSVATANAKVLIELEPPFGDSYIVVGRGEQQINHHWHKSGSSIGK | – | – | TLR-5 EC50 (batch 052): > 5000 ng/mL; TLR-5 EC50 (batch 054): 1200 ng/mL; TLR-5 EC50 (batch 057): 198 ng/mL
6 | STF2.HA1-2(PR8), produced in E. coli (protein) MAQVINTNSLSLLTQNNLNKSQSALGTAIERLSSGLRINSAKDDAAGQAIANRFTANIKGLTQASRNANDGISIAQTTEGALNEINNNLQRVRELAVQSANSTNSQSDLDSIQAEITQRLNEIDRVSGQTQFNGVKVLAQDNTLTIQVGANDGETIDIDLKQINSQTLGLDSLNVQKAYDVKDTAVTTKAYANNGTTLDVSGLDDAAIKAATGGTNGTASVTGGAVKFDADNNKYFVTIGGFTGADAAKNGDYEVNVATDGTVTLAAGATKTTMPAGATTKTEVQELKDTPAVVSADAKNALIAGGVDATDANGAELVKMSYTDKNGKTIEGGYALKAGDKYYAADYDEATGAIKAKTTSYTAADGTTKTAANQLGGVDGKTEVVTIDGKTYNASKAAGHDFKAQPELAEAAAKTTENPLQKIDAALAQVDALRSDLGAVQNRFNSAITNLGNTVNNLSEARSRIEDSDYATEVSNMSRAQILQQAGTSVLAQANQVPQNVLSLLAKGIAPLQLGKCNIAGWLLGNPECDPLLPVRSWSYIVETPNSENGICYPGDFIDYEELREQLSSVSSFERFEIFPKESSWPNHNTNGVTAACSHEGKSSFYRNLLWLTEKEGSYPKLKNSYVNKKGKEVLVLWGIHHPPNSKEQQNLYQNENAYVSVVTSNYNRRFTPEIAERPKVRDQAGRMNYYWTLLKPGDTIIFEANGNLIAPMYAFALSRGFGSGIITS | – | 0.15 ng/mL | –
7 | STF2.HA1-2(PR8)mut, produced in E. coli (protein) MAQVINTNSLSLLTQNNLNKSQSALGTAIERLSSGLRINSAKDDAAGQAIANRFTANIKGLTQASRNANDGISIAQTTEGALNEINNNLQRVRELAVQSANSTNSQSDLDSIQAEITQRLNEIDRVSGQTQFNGVKVLAQDNTLTIQVGANDGETIDIDLKQINSQTLGLDSLNVQKAYDVKDTAVTTKAYANNGTTLDVSGLDDAAIKAATGGTNGTASVTGGAVKFDADNNKYFVTIGGFTGADAAKNGDYEVNVATDGTVTLAAGATKTTMPAGATTKTEVQELKDTPAVVSADAKNALIAGGVDATDANGAELVKMSYTDKNGKTIEGGYALKAGDKYYAADYDEATGAIKAKTTSYTAADGTTKTAANQLGGVDGKTEVVTIDGKTYNASKAAGHDFKAQPELAEAAAKTTENPLQKIDAALAQVDALRSDLGAVQNRFNSAITNLGNTVNNLSEARSRIEDSDYATEVSNMSRAQILQQAGTSVLAQANQVPQNVLSLLAKGAAPLQLGKCNIAGWLLGNPECDPLLPVRSWSDIAETPNSENGICYPGDFIDYEELREQLSSVSSFERFEIFPKESSWPNHNTNGVTAACSHEGKSSFYRNLLWLTEKEGSYPKLKNSYVNKKGKEVLVLWGIHHPPNSKEQQNLYQNENAYVSVVTSNYNRRFTPEIAERPKVRDQAGRMNYYWTLLKPGDTIIFEANGNLIAPMYAFALSRGFGSGIITS | – | 1.2 ng/mL | –
8 | STF2.HA1-1His(PR8), produced in E. coli (protein) MAQVINTNSLSLLTQNNLNKSQSALGTAIERLSSGLRINSAKDDAAGQAIANRFTANIKGLTQASRNANDGISIAQTTEGALNEINNNLQRVRELAVQSANSTNSQSDLDSIQAEITQRLNEIDRVSGQTQFNGVKVLAQDNTLTIQVGANDGETIDIDLKQINSQTLGLDSLNVQKAYDVKDTAVTTKAYANNGTTLDVSGLDDAAIKAATGGTNGTASVTGGAVKFDADNNKYFVTIGGFTGADAAKNGDYEVNVATDGTVTLAAGATKTTMPAGATTKTEVQELKDTPAVVSADAKNALIAGGVDATDANGAELVKMSYTDKNGKTIEGGYALKAGDKYYAADYDEATGAIKAKTTSYTAADGTTKTAANQLGGVDGKTEVVTIDGKTYNASKAAGHDFKAQPELAEAAAKTTENPLQKIDAALAQVDALRSDLGAVQNRFNSAITNLGNTVNNLSEARSRIEDSDYATEVSNMSRAQILQQAGTSVLAQANQVPQNVLSLLASHNGKLCRLKGIAPLQLGKCNIAGWLLGNPECDPLLPVRSWSYIVETPNSENGICYPGDFIDYEELREQLSSVSSFERFEIFPKESSWPNHNTNGVTAACSHEGKSSFYRNLLWLTEKEGSYPKLKNSYVNKKGKEVLVLWGIHHPPNSKEQQNLYQNENAYVSVVTSNYNRRFTPEIAERPKVRDQAGRMNYYWTLLKPGDTIIFEANGNLIAPMYAFALSRGFGSGIITSNASMHECNTKCQTPLGAINSSLPYQNIHPVTIGECPKYVRHHHHHH | – | 0.2 ng/mL | –
